Test results taken from publication doi:10.1101/2025.09.11.675682, “Weak SLP-76-PLC-γ1 interaction in the LAT-nucleated multi-protein complex fine-tunes TCR signal strength to optimize T cell responsiveness” (bioRxiv, 2025).

What was measured:
[1] = target: T1, PLC-γ1 (Phospholipase C-γ1), 1–1219 (UniProt P19174 1-1219); test: cell-based or functional assay
T1 sequence (looked up): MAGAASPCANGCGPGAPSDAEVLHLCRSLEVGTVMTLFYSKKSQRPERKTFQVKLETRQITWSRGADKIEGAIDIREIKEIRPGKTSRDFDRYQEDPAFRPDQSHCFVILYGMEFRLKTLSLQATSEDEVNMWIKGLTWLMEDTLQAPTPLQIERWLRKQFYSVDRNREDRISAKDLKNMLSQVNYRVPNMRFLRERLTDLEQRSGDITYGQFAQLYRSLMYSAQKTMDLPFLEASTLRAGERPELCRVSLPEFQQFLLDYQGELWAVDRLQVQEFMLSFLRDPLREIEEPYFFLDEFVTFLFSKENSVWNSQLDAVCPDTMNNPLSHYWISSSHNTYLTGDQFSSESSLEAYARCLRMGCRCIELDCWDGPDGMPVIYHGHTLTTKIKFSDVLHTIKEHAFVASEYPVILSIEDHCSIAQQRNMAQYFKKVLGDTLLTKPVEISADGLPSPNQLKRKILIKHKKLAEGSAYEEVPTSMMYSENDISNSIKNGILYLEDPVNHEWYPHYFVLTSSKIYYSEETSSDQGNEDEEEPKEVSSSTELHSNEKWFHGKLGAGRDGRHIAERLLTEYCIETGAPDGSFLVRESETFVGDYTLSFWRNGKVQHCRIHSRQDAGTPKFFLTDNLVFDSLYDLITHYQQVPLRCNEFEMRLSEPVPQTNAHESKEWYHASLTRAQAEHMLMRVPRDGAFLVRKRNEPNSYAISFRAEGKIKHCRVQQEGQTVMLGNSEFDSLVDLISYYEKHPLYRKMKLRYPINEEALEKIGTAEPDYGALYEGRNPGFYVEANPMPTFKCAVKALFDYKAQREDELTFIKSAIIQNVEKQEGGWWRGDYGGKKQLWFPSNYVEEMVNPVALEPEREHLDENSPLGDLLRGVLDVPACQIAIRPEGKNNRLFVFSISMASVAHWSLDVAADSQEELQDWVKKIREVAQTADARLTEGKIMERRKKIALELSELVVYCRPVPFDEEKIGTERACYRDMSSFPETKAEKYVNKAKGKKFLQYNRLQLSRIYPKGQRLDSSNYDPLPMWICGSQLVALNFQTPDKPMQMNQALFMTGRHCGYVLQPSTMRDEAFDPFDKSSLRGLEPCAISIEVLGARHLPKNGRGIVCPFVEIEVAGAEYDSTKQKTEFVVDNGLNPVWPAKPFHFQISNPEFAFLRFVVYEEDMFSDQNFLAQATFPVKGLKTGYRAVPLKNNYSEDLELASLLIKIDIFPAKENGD

[2] = target: T1, PLC-γ1 (Phospholipase C-γ1), 1–1219; test: ITC; VP-ITC; 5°C; 20 mM Hepes (pH 7.4), 100 mM NaCl, 0.1 mM DTT; 4 μM in the cell, 40 μM in the syringe; single binding site fit with 1:1 stoichiometry; 3 independent experiments; details: both partners purified

B1: SLP-76^WT polypeptide (aa 103–258, Y113F, Y173F) (domain or fragment, UniProt Q13094 103-258, looked up)
chain: GGWSSFEEDDFESPNDDQDGEDDGDYESPNEEEEAPVEDDADYEPPPSNDEEALQNSILPAKPFPNSNSMFIDRPPSGKTPQQPPVPPQRPMAALPPPPAGRNHSPLPPPQTNHEEPSRSRNHKTAKLPAPSIDRSTKPPLDRSLAPFDREPFTLG
notes: wild-type proline-rich region; not shown: His6, N-terminal, cleaved; GST, N-terminal, cleaved
[1]
  PLC-γ1 activity (IP3 from PIP2-bearing liposomes): LAT-Gads-SLP-76^WT-PLC-γ1 tetramer against PLC-γ1 with phospho-LAT alone: 1.7 fold
[2]
  Kd: 2.32 µM
  dH: -15.9 kJ/mol

B2: SLP-76 PRR peptide (aa 185–200), wild type (peptide, UniProt Q13094 185-200, looked up)
peptide: QPPVPPQRPMAALPPP
notes: SLP-76 proline-rich region, residues 185–200; also called SLP-76 185–200 (WT); SLP-76 PRR_(185–200) peptide
[2]
  Kd: 3.99 µM
  dH: -13.8 kJ/mol
